Source: patent publication US20210101982A1

Molecular target: PD-L1 on cells (cancer cell lines expressing PD-L1; PD-L1+ aAPC/CHO-K1 cells) (human) (UniProt Q9NZQ7)
Assay: cell-based or functional assay

Chain of PD-L1 on cells (cancer cell lines expressing PD-L1; PD-L1+ aAPC/CHO-K1 cells) (human) (Q9NZQ7 19-290): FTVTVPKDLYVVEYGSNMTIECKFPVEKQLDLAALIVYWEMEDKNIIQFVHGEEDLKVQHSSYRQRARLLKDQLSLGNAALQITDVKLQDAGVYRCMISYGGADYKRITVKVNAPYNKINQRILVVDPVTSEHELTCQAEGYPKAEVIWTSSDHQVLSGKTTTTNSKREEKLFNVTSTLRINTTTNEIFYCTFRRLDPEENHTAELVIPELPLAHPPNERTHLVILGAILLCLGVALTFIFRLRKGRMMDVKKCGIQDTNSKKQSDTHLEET

Atezolizumab - MP-PEG8-VKG-Camptothecin (antibody)
> 3000 ng/mL: x50 (50% reduction in viability, CellTiter-Glo, 96 h) on 786-O cells | x50 (50% reduction in viability, CellTiter-Glo, 96 h) on BXPC3 cells | x50 (50% reduction in viability, CellTiter-Glo, 96 h) on KARPAS 299 cells | x50 (50% reduction in viability, CellTiter-Glo, 96 h) on L540CY cells | x50 (50% reduction in viability, CellTiter-Glo, 96 h) on MDA-MB-231 cells

Atezolizumab - vc-MMAE (antibody)
> 3000 ng/mL: x50 (50% reduction in viability, CellTiter-Glo, 96 h) on 786-O cells | x50 (50% reduction in viability, CellTiter-Glo, 96 h) on BXPC3 cells | x50 (50% reduction in viability, CellTiter-Glo, 96 h) on KARPAS 299 cells | x50 (50% reduction in viability, CellTiter-Glo, 96 h) on L540CY cells | x50 (50% reduction in viability, CellTiter-Glo, 96 h) on MDA-MB-231 cells
